The results in this text go back to article PMC5737878 (Nucleic Acids Research, 2017).

In one series the target is GR DBD (UniProt P04150 417-506). Nature of the series: fluorescence polarization. For orientation: Polarisation of emitted light reports the rotation of a fluorescent probe.
The series “NMR titration” concerns the molecule itself. Nature of the series: NMR titration.

B1: IL1a TRE (FP) (dsDNA)
DNA 1: GAAGAAGACTGACTCTCAGGCTTAAGC
DNA 2: GCTTAAGCCTGAGAGTCAGTCTTCTTC
On to B1, for which the binding result in the series with GR DBD was “binds”.

B2: VCAM1 TRE (FP) (dsDNA)
DNA 1: TTCCGGCTGACTCATCAAGCG
DNA 2: CGCTTGATGAGTCAGCCGGAA
On to B2, for which, in the series with GR DBD, the binding result was “binds”.

B3: Glucocorticoid receptor DNA binding domain (GR DBD, residues 417-506), 15N-labelled (domain or fragment, UniProt P04150 417-506, looked up)
chain: PPKLCLVCSDEASGCHYGVLTCGSCKVFFKRAVEGQHNYLCAGRNDCIIDKIRRKNCPACRYRKCLQAGMNLEARKTKKKIKGIQQATTG
modifications: 15N-labelled
Take B3: in the series “NMR titration”, the binding result is on record as “binds”.

B4: MMP13 TRE (FP) (dsDNA)
DNA 1: ATAAGTGATGACTCACCATTGCA
DNA 2: TGCAATGGTGAGTCATCACTTAT
As to B4, the binding result in the series with GR DBD is on record as “binds”.
